In general, Kd refers to a measure of binding affinity in units of concentration.

For this experiment, the target named is T1, Full-length human CDK1 from a 3C-protease cleavable GST fusion (GPLGS left at the N terminus), … (human, UniProt P06493 1-297).
T1 construct: short cloning artefact left at the N terminus after 3C cleavage of the GST fusion; CDK1, human, full length; also called GST-CDK1 (before cleavage); unphosphorylated CDK1; source: insect cells (Sf9, baculovirus pVL1393GST-CDK1), purified (glutathione-sepharose 4B, GST-3C cleavage, SEC); for ITC treated with λ-phosphatase and purified again by SEC; not shown: GST, N-terminal, cleaved
T1 sequence (P06493 other isoform, or with tags, fused parts or gaps): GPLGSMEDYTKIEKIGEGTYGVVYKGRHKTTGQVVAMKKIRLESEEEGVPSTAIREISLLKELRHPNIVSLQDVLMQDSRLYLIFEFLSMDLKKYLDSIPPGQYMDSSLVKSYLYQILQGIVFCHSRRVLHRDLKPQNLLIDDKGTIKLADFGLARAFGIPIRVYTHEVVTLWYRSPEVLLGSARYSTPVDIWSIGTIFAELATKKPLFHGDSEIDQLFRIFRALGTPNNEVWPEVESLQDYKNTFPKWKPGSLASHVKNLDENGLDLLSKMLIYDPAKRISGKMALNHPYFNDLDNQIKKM
Description: ITC; higher salt, higher pH: 50 mM HEPES pH 8.0, 500 mM NaCl, 0.01% MTG, 30 °C; cyclin in the cell, unphosphorylated CDK from the syringe; one-set-of-sites model. The settings on record: both partners purified. On the technique in general: In ITC the heat of successive injections is recorded.

B1: Human cyclin B1, residues 165–433 carrying the C167S/C238S/C350S mutations (domain or fragment)
chain: GSHMNLSSEYVKDIYAYLRQLEEEQAVRPKYLLGREVTGNMRAILIDWLVQVQMKFRLLQETMYMTVSIIDRFMQNNSVPKKMLQLVGVTAMFIASKYEEMYPPEIGDFAFVTDNTYTKHQIRQMEMKILRALNFGLGRPLPLHFLRRASKIGEVDVEQHTLAKYLMELTMLDYDMVHFPPSQIAAGAFSLALKILDNGEWTPTLQHYLSYTEESLLPVMQHLAKNVVMVNQGLTKHMTVKNKYATSKHAKISTLPQLNSALVQDLAKAVAKV
notes: artefact left N-terminal to N165 after thrombin cleavage of the hexa-histidine tag; cyclin B1, human, residues 165–433 (begins at N165); not shown: His6, N-terminal, cleaved
For B1, the Kd worked out at 28 nM.

These data come from publication PMC4413027 (Nature Communications, 2015).
